# Reference: patent US8394607B2, “Anti-CD22 antibodies and immunoconjugates and methods of use” (Genentech, Inc., priority 2006, dated 2013)
# “And” between values parts separate entries of the source, which are not always exact repeats. Equal values may be shown once.
# T1: human CD22-beta-ECD-His tagged soluble antigen (Homo sapiens, UniProt P20273, A486R/Y639H)
# T1 sequence (P20273 22-681 A486R/Y639H): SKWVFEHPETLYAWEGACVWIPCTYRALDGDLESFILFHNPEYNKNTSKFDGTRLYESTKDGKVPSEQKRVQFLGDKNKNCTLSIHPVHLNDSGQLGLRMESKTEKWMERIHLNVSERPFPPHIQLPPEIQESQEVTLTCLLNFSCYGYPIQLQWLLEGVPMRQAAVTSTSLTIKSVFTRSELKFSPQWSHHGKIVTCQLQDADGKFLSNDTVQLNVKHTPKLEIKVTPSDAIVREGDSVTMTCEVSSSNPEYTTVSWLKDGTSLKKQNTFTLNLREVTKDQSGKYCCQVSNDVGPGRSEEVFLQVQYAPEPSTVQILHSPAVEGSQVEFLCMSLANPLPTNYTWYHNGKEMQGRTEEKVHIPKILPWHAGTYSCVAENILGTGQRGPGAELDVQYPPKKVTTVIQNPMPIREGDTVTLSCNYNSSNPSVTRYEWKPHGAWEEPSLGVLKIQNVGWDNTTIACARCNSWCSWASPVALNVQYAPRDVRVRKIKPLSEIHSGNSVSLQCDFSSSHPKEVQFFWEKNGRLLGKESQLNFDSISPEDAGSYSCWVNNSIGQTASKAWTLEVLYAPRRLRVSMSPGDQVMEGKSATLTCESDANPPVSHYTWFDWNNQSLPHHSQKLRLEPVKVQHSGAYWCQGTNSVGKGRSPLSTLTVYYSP
# What was measured:
# Granta-519 cells = experiment: Granta-519 xenograft tumor volume reduction; type: in vivo, SCID mice; details: Table 14 study, FIG. 19, 100 μg/m^2 drug at Day 0
# Description: The ability of the thiomab drug conjugates prepared according to Example 11 to reduce B-cell tumor volume in xenograft models was tested according to the procedure disclosed in Example 9, herein. To SCID mice having Granta-519 cell xenograft tumors, control and anti-CD22 humanized 10F4v3 thiomab drug conjugates were administered at Day 0 in the doses shown in Table 14, below. The control HC(A118C) thiomab was anti-HER2 4D5 antibody.
# Additional thiomab drug conjugates were tested in Granta-519 xenografts in CB17 SCID mice using the same protocol, although different drug doses were tested. The control antibody or control thiomab was anti-HER24D5 antibody or HC(A118C) thiomab.
# DoHH2 cells = experiment: DoHH2 xenograft tumor volume reduction; type: in vivo; details: Table 16 study; follicular lymphoma DOHH2 xenograft, CB17 SCID mice; 600 or 300 μg/m^2
# Text: In a similar study, using the same xenograft study protocol as disclosed in the above examples, varying the TDCs and doses administered, the efficacy of TDCs in follicular lymphoma DOHH2 xenografts in CB17 SCID mice was studied.
# [1] = test system: cynomolgus monkey (cyno) CD22 expressed on the surface of CHO cells; experiment: Cell-based competitive binding assay with 125I antibody, Scatchard analysis; details: 4 hours at 4° C.
# Description: Briefly, CHO cells stably expressing full length human CD22 (SEQ ID NO:27) or cynomolgus monkey (cyno) CD22 (SEQ ID NO:31). […] A cell-based, competitive binding assay was performed using serially diluted, unlabeled anti-CD22 antibody. Antibodies were allowed to bind to the cells for 4 hours at 4° C. Binding affinity, KD, of the antibodies was determined in accordance with standard Scatchard analysis performed utilizing a non-linear curve fitting program (see, for example, Munson et al., Anal Biochem, 107: 220-239, 1980).
# BJAB-luc cells = experiment: BJAB-luc xenograft tumor volume reduction; type: in vivo, SCID mice; details: single I.V. treatment, 32 days
# Description: Sixty-five SCID mice were injected with 2×10^7 BJAB-luc cells subcutaneously in a volume of 0.2 ml per mouse in the flank. Cells were suspended in HBSS. When the mean tumor size reached 100-200 mm^3, mice were randomly grouped into four groups of 9 mice each and given a single I.V. treatment (via the tail vein) of the anti-CD22 or control antibody indicated in Table 4, below.
# Mean tumor volume was monitored in each treatment group for 32 days post-antibody injection. Tumor measurements were taken with calipers. Efficacy of the toxin-conjugated anti-CD22 antibodies was determined by comparison to the control and unconjugated antibodies. […]
# [2] = target: T1, human CD22-beta-ECD-His tagged soluble antigen; experiment: BIACORE surface plasmon resonance binding to soluble CD22 ECD; details: BIACORE 3000, 25° C., antibody coupled to chip, soluble CD22 ECD injected; one-to-one Langmuir model
# Description: The binding affinity of murine and humanized 10F4 antibody for soluble CD22 extracellular domain (ECD) was determined by surface plasmon resonance measurement using a BIACORE® 3000 system (Biacore, Inc., Piscataway, N.J.). Briefly, carboxymethylated dextran biosensor chips (CMS, Biacore Inc.) were activated with N-ethyl-N′-(3-dimethylaminopropyl)-carbodiimide hydrochloride (EDC) and N-hydroxysuccinimide (NHS) according to the supplier's instructions. These activated chips were coated with anti-CD22 IgG1 antibody 10F4 (murine or humanized) by dilution to 5 μg/ml with 10 mM sodium acetate, pH 4.8, before injection at a flow rate of 5 μl/minute to achieve approximately 500 response units (RU) of coupled antibody. Next, 1M ethanolamine was injected to block unreacted groups. […] Association rates (kon) and dissociation rates (koff) were calculated using a simple one-to-one Langmuir binding model (BIAevaluation Software version 3.2). The equilibrium dissociation constant (Kd) was calculated as the ratio koff/kon. Anti-CD22 antibody, RFB4, was used as a control (Chemicon International, Inc., Temecula, Calif., catalog no. CBL147).
# [3] = Table 4 study, 200 μg/m^2 DM1 (naked antibody 3.4 mg/kg)
# [4] = Table 5 study, 200 μg/m^2 DM1 (naked antibody 4.5 mg/kg)
# cynomolgus monkey (cyno) CD22 expressed on the surface of CHO cells, sequence (as listed by the source): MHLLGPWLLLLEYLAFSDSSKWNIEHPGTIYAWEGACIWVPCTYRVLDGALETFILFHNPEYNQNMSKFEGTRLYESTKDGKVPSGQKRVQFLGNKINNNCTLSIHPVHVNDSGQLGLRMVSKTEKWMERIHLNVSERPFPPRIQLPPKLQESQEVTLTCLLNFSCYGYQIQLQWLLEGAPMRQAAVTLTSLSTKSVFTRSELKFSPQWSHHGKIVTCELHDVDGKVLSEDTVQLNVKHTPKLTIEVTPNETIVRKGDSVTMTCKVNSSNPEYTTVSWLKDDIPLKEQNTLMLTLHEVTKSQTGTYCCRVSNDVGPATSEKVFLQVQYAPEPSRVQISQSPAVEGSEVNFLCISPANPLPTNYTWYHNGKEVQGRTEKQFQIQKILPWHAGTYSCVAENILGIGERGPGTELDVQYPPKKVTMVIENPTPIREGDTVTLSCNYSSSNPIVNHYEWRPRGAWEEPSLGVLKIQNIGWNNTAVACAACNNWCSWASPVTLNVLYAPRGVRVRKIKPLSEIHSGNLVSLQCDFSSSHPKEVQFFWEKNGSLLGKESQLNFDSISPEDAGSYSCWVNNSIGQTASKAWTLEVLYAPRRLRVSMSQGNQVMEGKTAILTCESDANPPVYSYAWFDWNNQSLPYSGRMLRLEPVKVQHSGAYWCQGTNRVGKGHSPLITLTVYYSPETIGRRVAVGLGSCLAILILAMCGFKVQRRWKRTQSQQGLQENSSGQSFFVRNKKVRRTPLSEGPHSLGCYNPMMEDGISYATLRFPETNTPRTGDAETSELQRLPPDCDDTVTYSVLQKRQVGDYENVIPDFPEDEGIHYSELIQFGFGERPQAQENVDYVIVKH
molecule,measurement,setting,value
Thio 10F4v3-LC(V205C)-MCvcPAB-MMAE: conjugation of V205C thio hu LC-10F4v3 and MC-val-cit-PAB-MMAE,mean tumor volume,Granta-519 cells,reduction in mean tumor volume for the duration of the study
same,mean tumor volume,Granta-519 cells; listed as 10F4-LC-V210C-MCvcPAB-MMAE,decrease in tumor volume during the study
Thio 10F4v3-HC(A118C)-BMPEO-DM1: conjugation of A118C thio hu HC-10F4v3 and bmpeo-DM1,efficacy on mean tumor volume,DoHH2 cells,intermediate efficacy
"Humanized 10F4v1: humanized 10F4 version 1, VH SEQ ID NO:16, VL SEQ ID NO:17, IgG1 (antibody, V domains shown, IgG1 constant regions; sequence is synthesized) VH: EVQLVESGGGLVQPGGSLRLSCAASGYEFSRSWMNWVRQAPGKGLEWVGRIYPGDGDTNYSGKFKGKATLTADKSSSTAYLQMNSLRAEDTAVYYCARDGSSWDWYFDYWGQGTLVTVSS VL: DIQMTQSPSSLSASVGDRVTITCRSSQSIVHSNGNTFLEWYQQKPGKAPKLLIYKVSNRFSGVPSRFSGSRSGTDFTLTISSLQPEDFATYYCFQGSQFPYTFGQGTKVEIKR",Kd,[1]; listed as Hu 10F4v1,1.4 nM and 1.8 nM
same,CR (number of animals attaining complete remission),BJAB-luc cells; [3],0
same,PR (number of animals with tumor regressed 50-99% from its initial volume),BJAB-luc cells; [3],0
same,TI (tumor incidence at the last time point; tumor-bearing animals / total animals),BJAB-luc cells; [3],9/9
"Humanized 10F4v2: humanized 10F4 version 2, N28V in HVR-L1, VH SEQ ID NO:16, VL SEQ ID NO:18, IgG1 (antibody, V domains shown, IgG1 constant regions; sequence is synthesized) VH: EVQLVESGGGLVQPGGSLRLSCAASGYEFSRSWMNWVRQAPGKGLEWVGRIYPGDGDTNYSGKFKGKATLTADKSSSTAYLQMNSLRAEDTAVYYCARDGSSWDWYFDYWGQGTLVTVSS VL: DIQMTQSPSSLSASVGDRVTITCRSSQSIVHSVGNTFLEWYQQKPGKAPKLLIYKVSNRFSGVPSRFSGSRSGTDFTLTISSLQPEDFATYYCFQGSQFPYTFGQGTKVEIKR",Kd,[1],2.1 nM
same,CR (number of animals attaining complete remission),BJAB-luc cells; [4],0
same,PR (number of animals with tumor regressed 50-99% from its initial volume),BJAB-luc cells; [4],0
same,TI (tumor incidence at the last time point; tumor-bearing animals / total animals),BJAB-luc cells; [4],9/9
"Chimeric 10F4: chimeric 10F4 anti-CD22 antibody (antibody, V domains shown) VH: QVQLQQSGPELVKPGASVKISCKASGYEFSRSWMNWVKQRPGQGREWIGRIYPGDGDTNYSGKFKGKATLTADKSSSTAYMQLSSLTSVDSAVYFCARDGSSWDWYFDVWGAGTTVTVSS VL: DILMTQTPLSLPVSLGDQASISCRSSQSIVHSNGNTFLEWYLQKPGQSPKLLIYKVSNRFSGVPDRFSGSGSGTDFTLKISRVEAEDLGVYYCFQGSQFPYTFGGGTKVEIK",koff/10^−4,[2],4.2
same,kon/10^5,[2],0.26
